Measured values from patent US20160237119A1 (UNIVERSITY OF TOKYO, published 2016).
Bridges are numbered along the chain shown (N, C = ends). Where no end group is shown, it is not given here. fluorescein = fluorescein fluorescent label attached to the peptide

Molecular target: T1, human c-Met (human, UniProt P08581 25-1390)
T1 construct: whole, on cells; Endogenous receptor on human cell lines; alpha and beta sub-units come from one precursor; also called c-Met protein; HGF receptor
Assay: confocal fluorescence microscopy on human c-Met expressing SNU-638 cells
Protocol: To human c-Met expressing cells (human SNU-638 cells) or human c-Met non-expressing cells (human SNU-216 cells) cultured on a glass-bottom dish were added a RPMI1640 medium containing 1 mg/L of Hoechst 33342, a nuclear staining reagent, an anti-human c-Met antibody, and 1 uM of L5-2-fluorescein, D4-3-fluorescein, D5-4-fluorescein, D4-3NMe-fluorescein, or D4-3scr-fluorescein and the resulting mixture was incubated in 5% CO₂ at 37° C. for 5 minutes. Then, a RPMI1640 medium containing an HRP-anti-rat secondary antibody and 1 μM of L5-2-fluorescein, D4-3-fluorescein, D5-4-fluorescein, D4-3NMe-fluorescein, or D4-3scr-fluorescein was added and the resulting mixture was incubated in 5% CO₂ at 37° C. for 5 minutes.
The cells were washed three times with a D-MEM medium and were microscopically observed in a new RPMI1640 medium. The localization of the peptide was observed using a confocal fluorescence microscope for the microscopic observation.

T1 sequence (P08581 25-1390): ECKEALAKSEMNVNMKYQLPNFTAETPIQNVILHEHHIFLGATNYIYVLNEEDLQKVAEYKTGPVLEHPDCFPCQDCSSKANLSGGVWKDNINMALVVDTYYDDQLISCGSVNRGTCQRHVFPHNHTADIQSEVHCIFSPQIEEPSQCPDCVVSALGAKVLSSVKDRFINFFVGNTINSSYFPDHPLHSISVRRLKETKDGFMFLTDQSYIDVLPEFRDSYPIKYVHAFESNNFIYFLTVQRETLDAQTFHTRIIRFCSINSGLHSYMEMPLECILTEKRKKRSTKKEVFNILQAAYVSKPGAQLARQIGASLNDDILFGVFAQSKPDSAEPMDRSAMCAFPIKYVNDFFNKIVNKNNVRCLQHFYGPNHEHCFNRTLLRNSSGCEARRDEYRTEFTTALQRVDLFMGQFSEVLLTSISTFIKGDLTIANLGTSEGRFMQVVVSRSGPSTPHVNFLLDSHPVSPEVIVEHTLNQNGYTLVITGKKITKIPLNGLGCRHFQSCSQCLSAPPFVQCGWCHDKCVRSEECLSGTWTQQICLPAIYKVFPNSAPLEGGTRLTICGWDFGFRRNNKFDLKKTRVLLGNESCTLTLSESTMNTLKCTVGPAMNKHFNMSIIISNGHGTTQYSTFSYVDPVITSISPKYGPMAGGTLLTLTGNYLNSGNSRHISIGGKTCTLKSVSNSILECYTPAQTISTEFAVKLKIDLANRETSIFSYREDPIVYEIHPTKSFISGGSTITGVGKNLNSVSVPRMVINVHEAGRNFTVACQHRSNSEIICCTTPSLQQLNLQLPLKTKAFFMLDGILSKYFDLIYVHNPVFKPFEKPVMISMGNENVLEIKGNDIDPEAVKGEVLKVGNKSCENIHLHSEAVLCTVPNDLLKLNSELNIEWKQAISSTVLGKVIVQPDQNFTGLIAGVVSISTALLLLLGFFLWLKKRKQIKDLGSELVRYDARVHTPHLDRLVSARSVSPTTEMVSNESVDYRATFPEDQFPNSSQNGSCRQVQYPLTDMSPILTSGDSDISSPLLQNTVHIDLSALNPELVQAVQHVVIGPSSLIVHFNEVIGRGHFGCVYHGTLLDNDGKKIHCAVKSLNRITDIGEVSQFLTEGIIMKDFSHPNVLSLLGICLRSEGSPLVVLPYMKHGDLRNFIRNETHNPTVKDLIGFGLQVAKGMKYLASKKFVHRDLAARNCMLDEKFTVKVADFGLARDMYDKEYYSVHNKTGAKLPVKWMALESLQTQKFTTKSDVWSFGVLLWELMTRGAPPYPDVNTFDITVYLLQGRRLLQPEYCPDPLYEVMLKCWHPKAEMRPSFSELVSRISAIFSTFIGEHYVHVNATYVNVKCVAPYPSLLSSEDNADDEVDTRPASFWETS

binding result: no binding (tested: 1 uM)
Binder: {CH2CO}-YERVNHLFRNQTWDRCGK(fluorescein) (thioether N-16, Negative control) [D4-3scr-fluorescein]
